Blank lines part the entries; values can stand above or below the binder they belong to.
Tests used:
[1] = target: M44-modified E NTAA target peptides; experiment: encoding assay; P2 G;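 further: fraction of recording tags encoded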
[2] = target: M44-modified T NTAA target peptides; experiment: encoding assay; P2 G
[3] = target: M44-modified E NTAA target peptides; experiment: encoding assay; P2 M;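 further: fraction of recording tags encoded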
[4] = target: M44-modified F NTAA target peptides (M44-F-P2-peptide); experiment: encoding assay; P2 M;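 further: fraction of recording tags encoded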
[5] = target: M44-modified I NTAA target peptides (M44-I-P2-peptide); experiment: encoding assay; P2 M
[6] = target: M44-modified L NTAA target peptides (M44-L-P2-peptide); experiment: encoding assay; P2 M;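 further: fraction of recording tags encoded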
[7] = target: M44-modified M NTAA target peptides; experiment: encoding assay; P2 M
[8] = target: M44-modified N NTAA target peptides; experiment: encoding assay; P2 M
[9] = target: M44-modified P NTAA target peptides; experiment: encoding assay; P2 M;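 further: fraction of recording tags encoded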
[10] = target: M44-modified T NTAA target peptides; experiment: encoding assay; P2 M
[11] = target: M44-modified V NTAA target peptides; experiment: encoding assay; P2 M;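 further: fraction of recording tags encoded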
[12] = target: M44-modified Y NTAA target peptides (M44-Y-P2-peptide); experiment: encoding assay; P2 M;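 further: fraction of recording tags encoded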
[13] = target: M44-modified D NTAA target peptides; experiment: encoding assay; P2 N;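 further: fraction of recording tags encoded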
[14] = target: M44-modified E NTAA target peptides; experiment: encoding assay; P2 N;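 further: fraction of recording tags encoded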
[15] = target: M44-modified F NTAA target peptides (M44-F-P2-peptide); experiment: encoding assay; P2 N;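 further: fraction of recording tags encoded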
[16] = target: M44-modified H NTAA target peptides; experiment: encoding assay; P2 N
[17] = target: M44-modified I NTAA target peptides (M44-I-P2-peptide); experiment: encoding assay; P2 N
[18] = target: M44-modified L NTAA target peptides (M44-L-P2-peptide); experiment: encoding assay; P2 N;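 further: fraction of recording tags encoded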
[19] = target: M44-modified M NTAA target peptides; experiment: encoding assay; P2 N
[20] = target: M44-modified N NTAA target peptides; experiment: encoding assay; P2 N
[21] = target: M44-modified Q NTAA target peptides; experiment: encoding assay; P2 N
[22] = target: M44-modified S NTAA target peptides; experiment: encoding assay; P2 N
[23] = target: M44-modified V NTAA target peptides; experiment: encoding assay; P2 N;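 further: fraction of recording tags encoded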
[24] = target: M44-modified W NTAA target peptides; experiment: encoding assay; P2 N;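 further: fraction of recording tags encoded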
[25] = target: M44-modified Y NTAA target peptides (M44-Y-P2-peptide); experiment: encoding assay; P2 N;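 further: fraction of recording tags encoded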
[26] = target: M44-modified A NTAA target peptides (M44-A-P2-peptide); experiment: encoding assay; P2 T
[27] = target: M44-modified E NTAA target peptides; experiment: encoding assay; P2 T;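 further: fraction of recording tags encoded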
[28] = target: M44-modified F NTAA target peptides (M44-F-P2-peptide); experiment: encoding assay; P2 T;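 further: fraction of recording tags encoded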
[29] = target: M44-modified G NTAA target peptides (M44-G-P2-peptide); experiment: encoding assay; P2 T;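 further: fraction of recording tags encoded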
[30] = target: M44-modified I NTAA target peptides (M44-I-P2-peptide); experiment: encoding assay; P2 T
[31] = target: M44-modified L NTAA target peptides (M44-L-P2-peptide); experiment: encoding assay; P2 T;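 further: fraction of recording tags encoded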
[32] = target: M44-modified M NTAA target peptides; experiment: encoding assay; P2 T
[33] = target: M44-modified N NTAA target peptides; experiment: encoding assay; P2 T
[34] = target: M44-modified P NTAA target peptides; experiment: encoding assay; P2 T;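 further: fraction of recording tags encoded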
[35] = target: M44-modified Q NTAA target peptides; experiment: encoding assay; P2 T
[36] = target: M44-modified T NTAA target peptides; experiment: encoding assay; P2 T
[37] = target: M44-modified V NTAA target peptides; experiment: encoding assay; P2 T;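 further: fraction of recording tags encoded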
[38] = target: M44-modified A NTAA target peptides (M44-A-P2-peptide); experiment: encoding assay; P2 V
[39] = target: M44-modified D NTAA target peptides; experiment: encoding assay; P2 V;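 further: fraction of recording tags encoded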
[40] = target: M44-modified F NTAA target peptides (M44-F-P2-peptide); experiment: encoding assay; P2 V;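 further: fraction of recording tags encoded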
[41] = target: M44-modified H NTAA target peptides; experiment: encoding assay; P2 V
[42] = target: M44-modified I NTAA target peptides (M44-I-P2-peptide); experiment: encoding assay; P2 V
[43] = target: M44-modified L NTAA target peptides (M44-L-P2-peptide); experiment: encoding assay; P2 V;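 further: fraction of recording tags encoded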
[44] = target: M44-modified M NTAA target peptides; experiment: encoding assay; P2 V
[45] = target: M44-modified N NTAA target peptides; experiment: encoding assay; P2 V
[46] = target: M44-modified P NTAA target peptides; experiment: encoding assay; P2 V;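 further: fraction of recording tags encoded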
[47] = target: M44-modified Q NTAA target peptides; experiment: encoding assay; P2 V
[48] = target: M44-modified S NTAA target peptides; experiment: encoding assay; P2 V
[49] = target: M44-modified T NTAA target peptides; experiment: encoding assay; P2 V
[50] = target: M44-modified W NTAA target peptides; experiment: encoding assay; P2 V;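 further: fraction of recording tags encoded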
[51] = target: M44-modified Y NTAA target peptides (M44-Y-P2-peptide); experiment: encoding assay; P2 V;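 further: fraction of recording tags encoded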

- encoding yield [1]: 0.02
- encoding yield [2]: 0.04
- encoding yield [3]: 0.03
- encoding yield [4]: 0.07
- encoding yield [5]: 0.17
- encoding yield [6]: 0.19
- encoding yield [7]: 0.02
- encoding yield [8]: 0.02
- encoding yield [9]: 0.02
- encoding yield [10]: 0.05
- encoding yield [11]: 0.03
- encoding yield [12]: 0.03
- encoding yield [13]: 0.01
- encoding yield [14]: 0.02
- encoding yield [15]: 0.01
- encoding yield [16]: 0.03
- encoding yield [17]: 0.03
- encoding yield [18]: 0.14
- encoding yield [19]: 0.02
- encoding yield [20]: 0.03
- encoding yield [21]: 0.02
- encoding yield [22]: 0.03
- encoding yield [23]: 0.04
- encoding yield [24]: 0.01
- encoding yield [25]: 0.05
- encoding yield [26]: 0.03
- encoding yield [27]: 0.01
- encoding yield [28]: 0.05
- encoding yield [29]: 0.04
- encoding yield [30]: 0.07
- encoding yield [31]: 0.15
- encoding yield [32]: 0.01
- encoding yield [33]: 0.02
- encoding yield [34]: 0.02
- encoding yield [35]: 0.02
- encoding yield [36]: 0.04
- encoding yield [37]: 0.04
- encoding yield [38]: 0.04
- encoding yield [39]: 0.03
- encoding yield [40]: 0.19
- encoding yield [41]: 0.04
- encoding yield [42]: 0.09
- encoding yield [43]: 0.18
- encoding yield [44]: 0.05
- encoding yield [45]: 0.05
- encoding yield [46]: 0.02
- encoding yield [47]: 0.02
- encoding yield [48]: 0.04
- encoding yield [49]: 0.03
- encoding yield [50]: 0.1
- encoding yield [51]: 0.07
B1: engineered M44-L binder (SEQ ID NO: 31) (designed binder, not shown: small tags and cut ends; large carriers)
chain: QDSTQNLIPAPPLISVPLQPGFWTERFQGRWFLVGFAGNAVQKERQSRLTMQSLILELQEDNSYNITAINVRGQGCRYIISTLVPSSRPGQFTLGNIHSYPQIQSLDVQVADTDYDQFAMVFLQGTSENKQYFEVALAGRTKGLSDELKERFVSFAKSLGLKDNNIVFSVPTDQCIDN

- encoding yield [1]: 0.01
- encoding yield [2]: 0.02
- encoding yield [3]: 0.01
- encoding yield [4]: 0.02
- encoding yield [5]: 0.1
- encoding yield [6]: 0.02
- encoding yield [7]: 0
- encoding yield [8]: 0.01
- encoding yield [9]: 0.01
- encoding yield [10]: 0.02
- encoding yield [11]: 0.01
- encoding yield [12]: 0.01
- encoding yield [13]: 0.01
- encoding yield [14]: 0.01
- encoding yield [15]: 0
- encoding yield [16]: 0.01
- encoding yield [17]: 0.09
- encoding yield [18]: 0.16
- encoding yield [19]: 0.02
- encoding yield [20]: 0.01
- encoding yield [21]: 0.01
- encoding yield [22]: 0.01
- encoding yield [23]: 0.03
- encoding yield [24]: 0.01
- encoding yield [25]: 0.01
- encoding yield [26]: 0.01
- encoding yield [27]: 0.01
- encoding yield [28]: 0.02
- encoding yield [29]: 0.01
- encoding yield [30]: 0.14
- encoding yield [31]: 0.1
- encoding yield [32]: 0
- encoding yield [33]: 0.01
- encoding yield [34]: 0.01
- encoding yield [35]: 0.01
- encoding yield [36]: 0.01
- encoding yield [37]: 0.02
- encoding yield [38]: 0.01
- encoding yield [39]: 0.01
- encoding yield [40]: 0.04
- encoding yield [41]: 0.01
- encoding yield [42]: 0.09
- encoding yield [43]: 0.09
- encoding yield [44]: 0.08
- encoding yield [45]: 0.01
- encoding yield [46]: 0.01
- encoding yield [47]: 0.01
- encoding yield [48]: 0.01
- encoding yield [49]: 0.01
- encoding yield [50]: 0.02
- encoding yield [51]: 0.02
B2: engineered M44-L binder (SEQ ID NO: 21) (designed binder, not shown: small tags and cut ends; large carriers)
chain: QVSVQPNFQQDKFLGRWFYAGHASNSSWYREKVAALSMAKLVVAPATDGGLNATETFLRKNQCETITSLLQPAGSLGSYSSRSPHGGSTWSTSVVETDYDQYALLYLQGSKGPGEDFRGAILASRTQTPRAELKEKFTAFSKAQGFTEDTIVFLPQTDKCMTEQ

- encoding yield [1]: 0.03
- encoding yield [2]: 0.11
- encoding yield [3]: 0.03
- encoding yield [4]: 0.04
- encoding yield [5]: 0.15
- encoding yield [6]: 0
- encoding yield [7]: 0.02
- encoding yield [8]: 0.02
- encoding yield [9]: 0.03
- encoding yield [10]: 0.21
- encoding yield [11]: 0.12
- encoding yield [12]: 0.03
- encoding yield [13]: 0.02
- encoding yield [14]: 0.03
- encoding yield [15]: 0
- encoding yield [16]: 0.03
- encoding yield [17]: 0.03
- encoding yield [18]: 0.04
- encoding yield [19]: 0.02
- encoding yield [20]: 0.05
- encoding yield [21]: 0.04
- encoding yield [22]: 0.05
- encoding yield [23]: 0.08
- encoding yield [24]: 0.01
- encoding yield [25]: 0.05
- encoding yield [26]: 0.24
- encoding yield [27]: 0.01
- encoding yield [28]: 0.04
- encoding yield [29]: 0.07
- encoding yield [30]: 0.05
- encoding yield [31]: 0.05
- encoding yield [32]: 0.01
- encoding yield [33]: 0.03
- encoding yield [34]: 0.05
- encoding yield [35]: 0.05
- encoding yield [36]: 0.1
- encoding yield [37]: 0.05
- encoding yield [38]: 0.17
- encoding yield [39]: 0.03
- encoding yield [40]: 0.09
- encoding yield [41]: 0.05
- encoding yield [42]: 0.05
- encoding yield [43]: 0.04
- encoding yield [44]: 0.04
- encoding yield [45]: 0.04
- encoding yield [46]: 0.04
- encoding yield [47]: 0.04
- encoding yield [48]: 0.05
- encoding yield [49]: 0.12
- encoding yield [50]: 0.06
- encoding yield [51]: 0.06
B3: engineered M44-A binder (SEQ ID NO: 42) (designed binder, not shown: small tags and cut ends; large carriers)
chain: QVSVQPNFQQDKFLGRWFVAGLASNSSWDREKVAALSGAKMVVAPATDGGLNVTRTMLRKNQCETYTGLLQPAGSLGSYSWRSPHPGSTGSESVVETDYDQYALVYGQGSKGPGEDLRAAALWSRTQTPRAELKEKFTAFSKAQGFTEDTIVFLPQTDKCMTEQ

Reference: US20230220589A1
